{"source": "patent US20090324700A1", "about": "“METHODS AND COMPOSITIONS FOR THE INHIBITION OF CATHEPSINS” (priority 2003, published 2009)", "molecules": {"B1": {"name": "Spi2A: murine Spi2A polypeptide, SEQ ID NO:2; purified as C-terminal 3×FLAG protein or expressed from MIGR1 retrovirus in cells and bone-marrow chimeras (protein, listed as Mus musculus)", "chain": "MAGVSPAVFGCPDVTLGRNTAVREVQENVTSVDSLTLVSSNTDFAFSLYRKLVLKNPDENVVFSPFSICTALALLSLGAKSNTLKEILEGLKFNLTETPEPDIHQGFRYLLDLLSQPGNQVQISTGSALFIEKHLQILAEFKEKARALYQAEAFTADFQQPLKATKLINDYVSNHTQGKIKELISGLKESTLMVLVNYIYFKGKWKNPFDPNDTFKSEFYLDEKRSVIVSMMKTGYLTTPYFRDEELSCTVVELKYTGNASAMFILPDQGRMQQVEASLQPETLRKWKNSLKPRMIHELRLPKFSISTDYSLEHILPELGIREVFSTHADLSAITGTKDLRVSQVVHKAVLDVAEKGTEAAAATGMAGVGCCAVFDFLEIFFNRPFLMIISDTKAHIALFMAKVTNPERSTNFPNGEGASSQRLESKRLCFGDPLCLIGQ", "modifications": "C-terminal 3xFLAG tag", "notes": "purified as C-terminal 3×FLAG protein or expressed from MIGR1 retrovirus in cells and bone-marrow chimeras"}}, "key": {"human cathepsin G": {"target": "T1, human cathepsin G (Homo sapiens, UniProt P08311)", "T1 construct": "purchased Calbiochem or Athens Research and Technology", "T1 sequence (P08311 21-244)": "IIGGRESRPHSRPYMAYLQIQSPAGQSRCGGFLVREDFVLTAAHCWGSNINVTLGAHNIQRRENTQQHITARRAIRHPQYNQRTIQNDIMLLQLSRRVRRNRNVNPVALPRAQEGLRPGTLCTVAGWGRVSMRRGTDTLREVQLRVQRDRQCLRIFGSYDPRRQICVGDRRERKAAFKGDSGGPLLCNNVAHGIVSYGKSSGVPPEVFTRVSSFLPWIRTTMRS", "assay": "Protease specificity of Spi2A: cathepsin G", "format": "biochemical", "conditions": "protease 20 nM, Spi2A 200 nM, 1 h at 37° C; FIG. 6B", "protocol": "(§1) Protease specificity of Spi2A. RelA^−/− MEFs were transduced with retrovirus encoding Spi2A with a C-terminal 3×FLAG epitope tag and Spi2A-3×FLAG purified using a method described previously (Cooley et al., 1998). Briefly, cells (3×10^9) were lysed and Spi2A-3×FLAG (75 μg) purified by batch Q-Fast Flow ion-exchange chromatography (Pharmacia Biotech) after elution at 160-220 mM NaCl followed by anti-FLAG antibody columns, performed according to manufacturer's instructions (Sigma-Aldrich). Spi2A-3×FLAG was dialysed into PBS and stored as aliquots at −80° C. until needed.\n(§2) Proteases were purchases from the manufacturers (Calbiochem or Athens Research and Technology) except granzymes A and B which were purified as described (Hanna et al., 1993) and cathespin V and K, which were purified as described (Bromme et al., 1999; Linnevers et al., 1997). Proteases (20 nM) were incubated in the appropriate assay buffer with Spi2A at 200 nM (at least 10-fold excess of inhibitor to maintain pseudo-first order conditions) for 1 h at 37° C. Control samples included only the enzyme, without the inhibitor. At the end of 1 h protease activity was assayed. […] Substrate hydrolysis was measured in a fluorescence microtiter plate reader (Spectramax Gemini XS, Molecular Devices). Percentage inhibition was calculated from the residual enzyme activity compared to no Spi2A controls. […]"}, "cathepsin B": {"target": "T2, cathepsin B (Homo sapiens, UniProt P07858)", "T2 construct": "purchased Calbiochem or Athens Research and Technology", "assay": "Protease specificity of Spi2A: cathepsin B", "format": "biochemical", "conditions": "protease 20 nM, Spi2A 200 nM, 1 h at 37° C; FIG. 6B", "protocol": "as §1, §2"}, "human cathepsin L": {"target": "T3, human cathepsin L (Homo sapiens, UniProt P07711)", "T3 construct": "purchased Calbiochem or Athens Research and Technology", "T3 sequence (P07711 114-333)": "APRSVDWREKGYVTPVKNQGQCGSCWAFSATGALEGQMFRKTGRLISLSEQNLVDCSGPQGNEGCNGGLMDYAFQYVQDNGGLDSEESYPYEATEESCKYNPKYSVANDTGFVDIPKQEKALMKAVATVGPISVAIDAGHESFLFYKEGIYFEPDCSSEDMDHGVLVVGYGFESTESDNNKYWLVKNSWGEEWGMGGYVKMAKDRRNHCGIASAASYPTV", "assay": "Protease specificity of Spi2A: cathepsin L", "format": "biochemical", "conditions": "protease 20 nM, Spi2A 200 nM, 1 h at 37° C; FIG. 6B", "protocol": "as §1, §2"}, "caspase 8": {"target": "T4, caspase 8 (Homo sapiens, UniProt Q14790)", "T4 construct": "purchased Calbiochem or Athens Research and Technology", "T4 sequence (Q14790 217-374 limits assumed, species assumed)": "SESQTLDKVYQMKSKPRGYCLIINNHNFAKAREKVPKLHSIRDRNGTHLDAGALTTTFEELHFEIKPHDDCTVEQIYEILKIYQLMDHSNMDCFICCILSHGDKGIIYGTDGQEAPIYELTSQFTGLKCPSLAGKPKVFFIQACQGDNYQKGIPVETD", "T4 sequence (Q14790 385-479 limits assumed, species assumed)": "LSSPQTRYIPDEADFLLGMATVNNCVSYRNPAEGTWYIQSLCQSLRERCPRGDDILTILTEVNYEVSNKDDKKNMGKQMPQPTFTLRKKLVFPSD", "assay": "Protease specificity of Spi2A: caspase 8", "format": "biochemical", "conditions": "FIG. 6B", "protocol": "as §1, §2"}, "RelA^−/− MEFs [1]": {"tested_on": "RelA^−/− MEFs", "assay": "Survival assay, TNF-α and CHX, RelA^−/− MEFs", "format": "cell-based, mouse"}, "RelA^−/− MEFs [2]": {"tested_on": "RelA^−/− MEFs", "assay": "ROS production (dihydroethidium), RelA^−/− MEFs", "format": "cell-based, mouse", "conditions": "TNF-α 0.2 ng/ml, CHX 0.1 μg/ml; FIG. 5D", "protocol": "Death effector assays. Death effector pathways were induced in […] MEFs by treatment TNF-α (0.2 ng/ml) and CHX (0.1 μg/ml). Assays for executioner proteases (caspases and cathepsin B) were performed on crude cytoplasmic extracts (Stegh et al., 2000). Briefly, MEFs (10^6) were lysed in 10 mM Tris-Cl, pH 7.5, 100 mM NaCl, 1 mM EDTA, 0.01% Triton X-100 (50 μl) for 30 min on ice then centrifuged at 15,000 g for 30 min at 4° C. and the supernatant recovered. Protein concentration was determined by Lowry assay (DC-protein assay kit, Biorad). Western immunoblots were performed on crude cytosolic extracts (50 μg per lane) using standard protocols and probed with the following antibodies: goat anti-mouse Bid antiserum (1 μg/ml; R&D systems), rabbit anti-human caspase 9 antiserum (2 μg/ml; Cell Signaling Technology), rabbit anti-human caspase 3 antiserum (2 μg/ml; Cell Signaling Technology), mouse anti-human caspase 8 monoclonal antibody clone 12F5 (1 μg/ml; Axxora). […]\nMitochondrial membrane potential and ROS production were measured using the fluorescent dyes JC-1 (3 μg/ml) and dihydroethidium (HE) (5 μM)(Molecular Probes) respectively, and flow cytometry according to the manufacturer's instructions."}, "NIH3T3 cells": {"tested_on": "NIH3T3 cells", "assay": "Survival of NIH3T3 cells incubated with Naphazarin (ROS)", "format": "cell-based", "conditions": "16 hours; three clones vs GFP controls; FIG. 12B", "protocol": "FIGS. 12A-B: Spi2A inhibits the lysosomal pathway of death in the absence of caspase activity. FIG. 12A: Cathepsin B activity in crude cytoplasmic extracts from cloned GFP or Spi2A-A NIH3T3 cells before (time=00 h) or after (time=8 h) treatment with TNF-α+Z-VAD.fmk (50 μM). FIG. 12B: Spi2A protects NIH3T3 cells from death due to reactive oxygen species. NIH3T3 fibroblasts from independent clones harboring control retrovirus (GFP clones #, 18, 12 and 2) or one expressing Spi2A (Spi2A clones# 6, 4 and 2) were incubated with Naphazarin—a known initiator of Reactive Oxygen Species (ROS). After 16 hours, the percentage of live cells was determined by flow cytometry as described in Liu et al. (2003).\nSpi2A protects NIH3T3 cells from death due to reactive oxygen species. NIH3T3 fibroblasts from independent clones harboring control retrovirus (GFP clones #, 18, 12 and 2) or one expressing Spi2A (Spi2A clones# 6, 4 and 2) were incubated with Naphazarin—a known initiator of Reactive Oxygen Species (ROS). After 16 hours, the percentage of live cells was determined by flow cytometry as described in Liu et al., 2003."}}}
{"molecule": "B1", "values": [{"measurement": "Inhibition of protease by Spi2A (percentage inhibition)", "setting": "human cathepsin G", "value": "inhibited"}, {"measurement": "Inhibition of protease by Spi2A (percentage inhibition)", "setting": "cathepsin B", "value": "extended to all of the lysosomal, papain-like proteases that were examined"}, {"measurement": "Inhibition of protease by Spi2A (percentage inhibition)", "setting": "human cathepsin L", "value": "extended to all of the lysosomal, papain-like proteases that were examined"}, {"measurement": "Inhibition of protease by Spi2A (percentage inhibition)", "setting": "caspase 8", "value": "did not extend to any of the caspases tested"}, {"measurement": "Protection at low concentrations of TNF-α", "setting": "RelA^−/− MEFs [1]; 0.5 ng/ml TNF-α, FIG. 2B", "value": "virtually complete"}, {"measurement": "Percentage survival after TNF-α and CHX, retrovirally transduced cells vs GFP", "setting": "RelA^−/− MEFs [1]; 16 h, CHX 0.1 μg/ml, FIG. 1B, 2B", "value": "markedly improved survival"}, {"measurement": "Protection at high concentrations of TNF-α", "setting": "RelA^−/− MEFs [1]; after 16 hours, FIG. 2B", "value": "dramatic"}, {"measurement": "production of reactive oxygen species (ROS)", "setting": "RelA^−/− MEFs [2]", "value": "suppressed"}, {"measurement": "Survival (percentage of live cells) with Naphazarin", "setting": "NIH3T3 cells", "value": "significantly increased survival"}]}
